± gives the standard deviation of the averaged measurements.
Test system: Saccharomyces cerevisiae
Experiment: protein stability index of tFT-peptide fusion (C-terminal peptide) (PSI (0-1 scale)); higher = more stable (slower turnover)
Details: genetic background: wild type; temperature: 30 C
Experimental: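 Multiplexed protein stability (MPS) profiling in S. cerevisiae. Random 12-aa peptides (tFT-X12 library) are fused to the C-terminus of a sfGFP-mCherry tandem fluorescent timer, after mCherry and a GGGS linker. Cells are FACS-sorted into 8 mCherry/sfGFP bins and deep-sequenced. The protein stability index (PSI) is the read-weighted bin average, scaled from 0 (unstable) to 1 (stable). Only peptides with >10 reads are reported; cells were grown at 30 °C in SC-His with glucose.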
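Further: PSI is a weighted mean of sequencing reads over stability bins, variants kept only with over 10 reads, mCherry proximal and sfGFP distal, peptide attached via GGGS linker.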

Sequence	protein stability index
ARAPPSSYPPSG	0.66 ± 0.012
AREGSRGVDVGV	0.629 ± 0.01
ARGPCRGSGSFG	0.631 ± 0.044
ARKRRRRGHDTE	0.725 ± 0.19
ARLATLSPEMAN	0.729 ± 0.082
ARLPSSRLDLSP	0.686 ± 0.056
ARPAPPDNVHRN	0.626 ± 0.069
ARPGSVIAQLRV	0.598 ± 0.031
ARPPPPPRSSPL	0.747 ± 0.072
ARRGGRKRPGAV	0.631 ± 0.056
ARSQGEKGGDVV	0.692 ± 0.0072
ARSVHGSLSLVM	0.633 ± 0.042
ARTADPAATPST	0.687 ± 0.02
ARTIVLGAGSGT	0.654 ± 0.084
ARVDGGGVRTDV	0.7511 ± 0.0069
ASALIFTPPSFL	0.686 ± 0.12
ASFHPIAPVSTP	0.6862 ± 0.0011
ASFSLSPFLPFS	0.6854 ± 0.0068
ASFVPPYLPSSM	0.75 ± 0.17
ASIPAPRLTPRA	0.681 ± 0.048
ASLAACSLTNSV	0.697 ± 0.053
ASLLSCSLLPPV	0.765 ± 0.08
ASNVHSSTARFI	0.687 ± 0.082
ASPLTIHSPNLL	0.725 ± 0.064
ASPSKVSGLNID	0.785 ± 0.097
ASRCEVGVRWGG	0.683 ± 0.025

Sequence	protein stability index
ASRKRKVAQESR	0.688 ± 0.03
ASRWVLLGGGGV	0.693 ± 0.03
ASSDLQDSPIGD	0.665 ± 0.019
ASSHDNPEEVST	0.6298 ± 0.002
ASTMAVLDYAPA	0.621 ± 0.0083
ASTTNLGNPFKA	0.654 ± 0.038
ASVLFILAIPDL	0.565 ± 0.039
ASVRPCSCSGRQ	0.715 ± 0.069
ATCSILPSRLSI	0.6124 ± 0.0011
ATHPPPPPLPPI	0.648 ± 0.068
ATLIGIPPSLSA	0.6643 ± 0.00067
ATQPPPPPLPPI	0.636 ± 0.052
ATQTGFGGGGPM	0.689 ± 0.013
ATSRGFLQNLMA	0.55737 ± 0.00018
ATVGVGSLLVKY	0.747 ± 0.05
AVGGDGGAWVGP	0.7231 ± 0.0022
AVGGGTPGGVSG	0.667 ± 0.012
AVGTYFSPVVLL	0.65 ± 0.016
AVNEHVPILFLL	0.62 ± 0.073
AVRRRGGLSVGV	0.654 ± 0.036
AVSCGLGAGSSA	0.645 ± 0.039
AVTWSRPRSARM	0.736 ± 0.0041
AVVVGGGGWWWA	0.801 ± 0.12
AVWSLMRCREFV	0.652 ± 0.028
AVYSACSRVGWV	0.6937 ± 0.0061
AWGELGAGVFGL	0.68 ± 0.049

Sequence	protein stability index
AWLAQIKLGWGL	0.68 ± 0.016
AYCVPPAFPFPL	0.627 ± 0.044
AYNFMTSVVPGK	0.744 ± 0.056
AYRLAFYGCVMR	0.514 ± 0.02
AYSNVFLDPTPV	0.69 ± 0.0097
CAASLSHKSAPY	0.768 ± 0.1
CACYILHGRSNP	0.684 ± 0.081
CAEFLFSTVLYP	0.735 ± 0.049
CCCELNTEIVQT	0.682 ± 0.059
CCCVLMTFTSSP	0.561 ± 0.044
CCFVLDLSASLL	0.625 ± 0.076
CCKRWICLLRRK	0.646 ± 0.012
CCLFCLLWSLLY	0.64 ± 0.0067
CDRVAQWTYPDA	0.783 ± 0.084
CEEQQPGFKPLL	0.706 ± 0.04
CEERGLLPTQYS	0.6686 ± 0.006
CEGERRTLSVKP	0.666 ± 0.033
CEHRTPLMFKRG	0.686 ± 0.048
CEKGLFLRSAYV	0.65 ± 0.034
CEVCRGSDRCDV	0.609 ± 0.015
CEYPWGTVVRDG	0.709 ± 0.045
CFCVRTGCSVGV	0.663 ± 0.016
CFFNAASHSTYE	0.7032 ± 0.0049
CFHIFRKSNMNN	0.726 ± 0.11
CFLLSSFSLPRS	0.705 ± 0.0078
CFLSAVFISSSL	0.601 ± 0.045

Sequence	protein stability index
CFRGGLLSESVV	0.6714 ± 0.0011
CFRPFSARVVVL	0.565 ± 0.016
CFSPAAPLLLPG	0.689 ± 0.025
CGACGFGLGVWV	0.701 ± 0.021
CGFALFLCDGFV	0.744 ± 0.083
CGGRPPADLRLS	0.69 ± 0.054
CGHVRSLAMAHN	0.68 ± 0.019
CGLGVRGRLVLS	0.625 ± 0.026
CGLRRRAGGGGV	0.7 ± 0.024
CGLSLRVICLEV	0.497 ± 0.02
CGRVWAENGSQG	0.689 ± 0.008
CGSGWDRSVGIG	0.531 ± 0.027
CGSHNRGLSSQL	0.676 ± 0.022
CGVGGVRCGLLG	0.667 ± 0.029
CGVGWGMGEGWR	0.6956 ± 0.00081
CGVRQVGEIAVA	0.526 ± 0.022
CGWASSWHSGLH	0.6874 ± 0.00071
CGWCCVVCSCLV	0.602 ± 0.06
CGWMVSAGRLGG	0.655 ± 0.022
CHALPPLLPDPL	0.715 ± 0.028
CIARPSGNRSYL	0.714 ± 0.069
CINDSEYHSTMF	0.741 ± 0.043
CIRSSSTEPCLP	0.685 ± 0.00086
CIYPYSSLLMRI	0.532 ± 0.028
CKGIGLGGGVVS	0.599 ± 0.033
CKRDENKKIILR	0.727 ± 0.014

Sequence	protein stability index
CLAAPIQDGGLT	0.684 ± 0.086
CLAIWSNLNECH	0.715 ± 0.034
CLARPVFFSFIG	0.559 ± 0.029
CLATAMARSQRE	0.683 ± 0.024
CLCCTSFPPPFP	0.673 ± 0.057
CLCPPPPLPVPR	0.699 ± 0.092
CLLLSLRVPPFS	0.638 ± 0.012
CLPHYSQVLLNW	0.715 ± 0.098
CLPPSPASFHPL	0.65 ± 0.056
CLPSQSAESLTF	0.664 ± 0.02
CLSPAFGCWWIV	0.582 ± 0.11
CNGRREAGHVDM	0.624 ± 0.13
CPALPPAPLSPL	0.725 ± 0.018
CPCRCLGFRWCF	0.631 ± 0.076
CPFLSISSNCSM	0.667 ± 0.027
CPGGQVECGVLC	0.652 ± 0.021
CPHSLDTFVSKF	0.704 ± 0.066
CPNLWSRFASRC	0.716 ± 0.0085
CPPLSPPLLLLL	0.667 ± 0.017
CPRRGSHLARLL	0.621 ± 0.038
CPSFTSVLPSVP	0.678 ± 0.036
CPSHPDCFPDRL	0.6792 ± 0.0039
CPSRCGLRAPYL	0.706 ± 0.017
CPTLSSHLLFPS	0.659 ± 0.087
CQPTTTCTGGNV	0.693 ± 0.035
CRFPFRILHPPF	0.68957 ± 0.00018

Sequence	protein stability index
CRFYKYIRNMFR	0.674 ± 0.074
CRGGRHFSREKF	0.723 ± 0.036
CRGWWRPGLGVT	0.64 ± 0.015
CRILRPITLRFR	0.528 ± 0.013
CRLRHPFPLSTR	0.644 ± 0.052
CRLSCRSVDAST	0.662 ± 0.022
CRLTAWDESGSG	0.673 ± 0.025
CRPAASCLPPER	0.6684 ± 0.0066
CRRLSICPILFL	0.607 ± 0.0062
CRRRGPWDRRSR	0.624 ± 0.014
CRRRNRLLLFRK	0.697 ± 0.037
CRSCFGGGVRFV	0.743 ± 0.076
CRTTDFQCTIGN	0.683 ± 0.0087
CRVALSRGVSLV	0.65 ± 0.0094
CRVVRPSLEPQV	0.697 ± 0.02
CRWLLWVDGWRV	0.5838 ± 0.0043
CSAESASPAERY	0.6541 ± 0.0013
CSHSLVLRFCPF	0.607 ± 0.059
CSLLCKCHLRRL	0.712 ± 0.1
CSLLFFFLLSFG	0.521 ± 0.021
CSLWVLKLFLGV	0.544 ± 0.012
CSPRPPPRSLHP	0.812 ± 0.024
CSPSPARPPPPR	0.684 ± 0.013
CSRGVVLFLGFL	0.586 ± 0.016
CSRPPFLLFVSP	0.702 ± 0.0076

Reference: the supplement of paper PMC10724198
